# Laboratory results from patent publication US20160024487.
# Target: human α-thrombin (FIIa), P00734
row,Protein,kcat/KM
1,FX [191-194]>[NATLMPR]-HPC4 (protein) ANSFLEEMKKGHLERECMEETCSYEEAREVFEDSDKTNEFWNKYKDGDQCETSPCQNQGKCKDGLGEYTCTCLEGFEGKNCELFTRKLCSLDNGDCDQFCHEEQNSVVCSCARGYTLADNGKACIPTGPYPCGKQTLERRKRSVAQATSSSGEAPDSITWKPYDAADLDPTENPFDLLDFNQTQPERGDNNATLMPRIVGGQECKDGECPWQALLINEENEGFCGGTILSEFYILTAAHCLYQAKRFKVRVGDRNTEQEEGGEAVHEVEVVIKHNRFTKETYDFDIAVLRLKTPITFRMNVAPACLPERDWAESTLMTQKTGIVSGFGRTHEKGRQSTRLKMLEVPYVDRNSCKLSSSFIITQNMFCAGYDTKQEDACQGDSGGPHVTRFKDTYFVTGIVSWGEGCARKGKYGIYTKVTAFLKWIDRSMKTRGLPKAKSHAPEVITSSPLKDQVDPRLIDGK,No Activity
2,FX [191-194]>[NATDTPR]-HPC4 (protein) ANSFLEEMKKGHLERECMEETCSYEEAREVFEDSDKTNEFWNKYKDGDQCETSPCQNQGKCKDGLGEYTCTCLEGFEGKNCELFTRKLCSLDNGDCDQFCHEEQNSVVCSCARGYTLADNGKACIPTGPYPCGKQTLERRKRSVAQATSSSGEAPDSITWKPYDAADLDPTENPFDLLDFNQTQPERGDNNATDTPRIVGGQECKDGECPWQALLINEENEGFCGGTILSEFYILTAAHCLYQAKRFKVRVGDRNTEQEEGGEAVHEVEVVIKHNRFTKETYDFDIAVLRLKTPITFRMNVAPACLPERDWAESTLMTQKTGIVSGFGRTHEKGRQSTRLKMLEVPYVDRNSCKLSSSFIITQNMFCAGYDTKQEDACQGDSGGPHVTRFKDTYFVTGIVSWGEGCARKGKYGIYTKVTAFLKWIDRSMKTRGLPKAKSHAPEVITSSPLKDQVDPRLIDGK,No Activity
3,FX [191-194]>[NATIRPR]-HPC4 (protein) ANSFLEEMKKGHLERECMEETCSYEEAREVFEDSDKTNEFWNKYKDGDQCETSPCQNQGKCKDGLGEYTCTCLEGFEGKNCELFTRKLCSLDNGDCDQFCHEEQNSVVCSCARGYTLADNGKACIPTGPYPCGKQTLERRKRSVAQATSSSGEAPDSITWKPYDAADLDPTENPFDLLDFNQTQPERGDNNATIRPRIVGGQECKDGECPWQALLINEENEGFCGGTILSEFYILTAAHCLYQAKRFKVRVGDRNTEQEEGGEAVHEVEVVIKHNRFTKETYDFDIAVLRLKTPITFRMNVAPACLPERDWAESTLMTQKTGIVSGFGRTHEKGRQSTRLKMLEVPYVDRNSCKLSSSFIITQNMFCAGYDTKQEDACQGDSGGPHVTRFKDTYFVTGIVSWGEGCARKGKYGIYTKVTAFLKWIDRSMKTRGLPKAKSHAPEVITSSPLKDQVDPRLIDGK,No Activity
4,FX [191-194]>[NATLRPR]-HPC4 (protein) ANSFLEEMKKGHLERECMEETCSYEEAREVFEDSDKTNEFWNKYKDGDQCETSPCQNQGKCKDGLGEYTCTCLEGFEGKNCELFTRKLCSLDNGDCDQFCHEEQNSVVCSCARGYTLADNGKACIPTGPYPCGKQTLERRKRSVAQATSSSGEAPDSITWKPYDAADLDPTENPFDLLDFNQTQPERGDNNATLRPRIVGGQECKDGECPWQALLINEENEGFCGGTILSEFYILTAAHCLYQAKRFKVRVGDRNTEQEEGGEAVHEVEVVIKHNRFTKETYDFDIAVLRLKTPITFRMNVAPACLPERDWAESTLMTQKTGIVSGFGRTHEKGRQSTRLKMLEVPYVDRNSCKLSSSFIITQNMFCAGYDTKQEDACQGDSGGPHVTRFKDTYFVTGIVSWGEGCARKGKYGIYTKVTAFLKWIDRSMKTRGLPKAKSHAPEVITSSPLKDQVDPRLIDGK,No Activity
5,FX [191-194]>[NATIKPR]-HPC4 (protein) ANSFLEEMKKGHLERECMEETCSYEEAREVFEDSDKTNEFWNKYKDGDQCETSPCQNQGKCKDGLGEYTCTCLEGFEGKNCELFTRKLCSLDNGDCDQFCHEEQNSVVCSCARGYTLADNGKACIPTGPYPCGKQTLERRKRSVAQATSSSGEAPDSITWKPYDAADLDPTENPFDLLDFNQTQPERGDNNATIKPRIVGGQECKDGECPWQALLINEENEGFCGGTILSEFYILTAAHCLYQAKRFKVRVGDRNTEQEEGGEAVHEVEVVIKHNRFTKETYDFDIAVLRLKTPITFRMNVAPACLPERDWAESTLMTQKTGIVSGFGRTHEKGRQSTRLKMLEVPYVDRNSCKLSSSFIITQNMFCAGYDTKQEDACQGDSGGPHVTRFKDTYFVTGIVSWGEGCARKGKYGIYTKVTAFLKWIDRSMKTRGLPKAKSHAPEVITSSPLKDQVDPRLIDGK,No Activity
6,FX [191-194]>[NATMMPR]-HPC4 (protein) ANSFLEEMKKGHLERECMEETCSYEEAREVFEDSDKTNEFWNKYKDGDQCETSPCQNQGKCKDGLGEYTCTCLEGFEGKNCELFTRKLCSLDNGDCDQFCHEEQNSVVCSCARGYTLADNGKACIPTGPYPCGKQTLERRKRSVAQATSSSGEAPDSITWKPYDAADLDPTENPFDLLDFNQTQPERGDNNATMMPRIVGGQECKDGECPWQALLINEENEGFCGGTILSEFYILTAAHCLYQAKRFKVRVGDRNTEQEEGGEAVHEVEVVIKHNRFTKETYDFDIAVLRLKTPITFRMNVAPACLPERDWAESTLMTQKTGIVSGFGRTHEKGRQSTRLKMLEVPYVDRNSCKLSSSFIITQNMFCAGYDTKQEDACQGDSGGPHVTRFKDTYFVTGIVSWGEGCARKGKYGIYTKVTAFLKWIDRSMKTRGLPKAKSHAPEVITSSPLKDQVDPRLIDGK,No Activity
7,FX [191-194]>[NATLEPR]-HPC4 (protein) ANSFLEEMKKGHLERECMEETCSYEEAREVFEDSDKTNEFWNKYKDGDQCETSPCQNQGKCKDGLGEYTCTCLEGFEGKNCELFTRKLCSLDNGDCDQFCHEEQNSVVCSCARGYTLADNGKACIPTGPYPCGKQTLERRKRSVAQATSSSGEAPDSITWKPYDAADLDPTENPFDLLDFNQTQPERGDNNATLEPRIVGGQECKDGECPWQALLINEENEGFCGGTILSEFYILTAAHCLYQAKRFKVRVGDRNTEQEEGGEAVHEVEVVIKHNRFTKETYDFDIAVLRLKTPITFRMNVAPACLPERDWAESTLMTQKTGIVSGFGRTHEKGRQSTRLKMLEVPYVDRNSCKLSSSFIITQNMFCAGYDTKQEDACQGDSGGPHVTRFKDTYFVTGIVSWGEGCARKGKYGIYTKVTAFLKWIDRSMKTRGLPKAKSHAPEVITSSPLKDQVDPRLIDGK,No Activity
